The text below walks through data of publication doi:10.1101/2025.04.08.647683.

Data set [1] has as its target T1, QuiR2 (Listeria monocytogenes EGD-e) (UniProt Q8Y543).
T1 sequence: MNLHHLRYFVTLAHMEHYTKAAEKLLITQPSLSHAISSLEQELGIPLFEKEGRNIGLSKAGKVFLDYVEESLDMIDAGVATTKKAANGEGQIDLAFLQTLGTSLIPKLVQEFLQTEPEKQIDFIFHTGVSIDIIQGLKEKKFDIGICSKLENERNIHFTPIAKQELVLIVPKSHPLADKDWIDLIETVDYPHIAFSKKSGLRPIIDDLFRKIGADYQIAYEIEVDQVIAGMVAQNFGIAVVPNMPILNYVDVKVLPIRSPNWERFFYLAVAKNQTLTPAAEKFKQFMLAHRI
Briefly: EMSA.

For data set [2], the target named is T2, QuiR2;QuiR (Listeria monocytogenes EGD-e;Listeria monocytogenes EGD-e?) (UniProt Q8Y543+Q8Y9N7).
T2 sequence 1: T1 sequence
T2 sequence 2: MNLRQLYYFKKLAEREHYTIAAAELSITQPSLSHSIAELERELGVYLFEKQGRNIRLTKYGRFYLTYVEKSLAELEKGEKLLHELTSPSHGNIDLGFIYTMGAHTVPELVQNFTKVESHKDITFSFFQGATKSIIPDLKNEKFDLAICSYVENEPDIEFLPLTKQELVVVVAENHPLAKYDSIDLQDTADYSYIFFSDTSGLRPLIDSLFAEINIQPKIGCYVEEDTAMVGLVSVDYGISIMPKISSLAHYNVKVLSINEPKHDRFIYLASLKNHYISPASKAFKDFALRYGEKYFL
Briefly: EMSA. A general note: Mobility shift assays separate free from complexed probe on a gel.

For “CGCAAGTTCATCGGTTAACCTCCTCGGAATGCCTTGATAACTCTATTGTAAGCGATTGTATAGAAAAAATCTATGGATAAATCGAAAAATATACATTAGATTAATAATTATTCCTGACTTATAATGAAAGAGAAATAAGATTGTGCATTATTGAACGTGAATAATGTAACAAATCATTTGCTGAGATTATAGTCGCAGGAGGCTTATTATGACAGATTATCCGAG (double strand) [qui1 intergenic region probe (225 nt)]”, the binding entry in data set [1] and in data set [2] was “binds” in each case.
